Target: human EpCAM (human) (UniProt P16422)
Experiment: binding affinity, method not stated

Sequence of UniProt P16422 (P16422 24-265 limits assumed): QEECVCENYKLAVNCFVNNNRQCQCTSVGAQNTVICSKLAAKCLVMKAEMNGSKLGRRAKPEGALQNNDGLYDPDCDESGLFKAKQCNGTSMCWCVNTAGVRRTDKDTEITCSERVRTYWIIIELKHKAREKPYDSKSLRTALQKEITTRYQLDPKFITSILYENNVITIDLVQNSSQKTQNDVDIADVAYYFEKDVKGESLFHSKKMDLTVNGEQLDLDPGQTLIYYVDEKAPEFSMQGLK

Kd: 2.8 nM
B1: hVIB-13 (VHH)
VHH: QVQLVESGGGLVQPGGSLTLSCAASGTGSIFSINLMGWYRQAPGKQRELVARITSGDSTVYADSVKGRFTISRDNSKNTLYLQMNSLRPEDTAVYYCNLLLRSSPGATTPYWGQGTLVTVSS

Reference: patent publication US20230414752A1
